The text below walks through data of patent US11459586B2, “Methods for increasing efficiency of nuclease-mediated gene editing in stem cells” (President and Fellows of Harvard College, priority 2016, dated 2022).

The subject of assay [1] is human iPSC. As to the kind of experiment: mThy1 gene targeting in hiPSC co-transfected with DNA repair or viral inhibitor genes. The assay is classed as cell-based. As for the experimental part:
FIGS. 9A-G. Effects of chemical and genetic inhibitors on mThy1 gene targeting in hiPSC. FIG. 9A. Mouse Thy1 gene targeting scheme. Human iPSC were nucleofected with the mThy1 targeting vector system plasmids and analyzed by flow cytometry five days later. The percentages of mThy1^+hThy1^−, mThy1^+hThy1^+, and mThy1^−hThy1^− cells for each sample (gated on live single cells) are graphed. Lines mark the percentage values for the control sample. FIGS. 9B-9D. Human iPSC were nucleofected with: 2 μg mThy1 targeting vector; 0.5 μg Cas9 plasmid; and 1.5 μg of sgRNA plasmids. The sample was divided into multiple wells and cultured in plain media (mTeSR1+10 μM Y-27632 ROCK inhibitor) supplemented with the indicated chemical inhibitor for three days. 20 μM pifithrin α, 200 μM peptide V5 (VPMLK, SEQ ID NO:31), 200 μM peptide control (IPMIK, SEQ ID NO:32), 50 μM TEMPOL, or the indicated concentrations of SCR7 or L755507 were used. FIG. 9B, mThy1^+hThy1^− (bottom portion of each bar in each graph), mThy1^+hThy1^+ (top portion of each bar in each graph). FIG. 9C, mThy1^+hThy1^− (bottom portion of each bar in each graph), mThy1^+hThy1^+ (top portion of each bar in left and center graphs, middle portion of each bar in right graph), and mThy1^−hThy1^− (top portion of each bar in right graph). FIG. 9D, mThy1^+hThy1^− (bottom portion of each bar in each graph), mThy1^+hThy1^+ (center portion of each bar in each graph), and mThy1^−hThy1^− (top portion of each bar in each graph). FIGS. 9E-9F. Human iPSC were nucleofected with: 2 μg mThy1 targeting vector plasmid; 0.5 μg Cas9 plasmid; 1 μg of sgRNA plasmids; and 0.5 μg of plasmid expressing the indicated DNA repair gene or pUC19 control (“Cas9 only”). For FIG. 9E, cultures were treated with 50 μM zVAD and 10 μM SB203580 post transfection. mThy1^+hThy1^− (bottom portion of each bar in each graph), mThy1^+hThy1^+ (top portion of each bar in left and center graphs, middle portion of each bar in right graph), and mThy1^−hThy1^− (top portion of each bar in right graph). FIG. 9F, mThy1^+hThy1^− (bottom portion of each bar in each graph), mThy1^+hThy1^+ (top portion of each bar in left and center graphs, middle portion of each bar in right graph), and mThy1^−hThy1^− (top portion of each bar in right graph). FIG. 9G. Human iPSC were nucleofected with: 2 μg mThy1 targeting vector plasmid; 0.5 μg Cas9 plasmid; and 1.5 μg of sgRNA plasmids. The indicated viral inhibitor genes were cloned into the Cas9 expression vector following an IRES sequence. Cultures were supplemented with 50 μM zVAD post transfection. mThy1^+hThy1^− (bottom portion of each bar in each graph), mThy1^+hThy1^+ (top portion of each bar in left and center graphs, middle portion of each bar in right graph), and mThy1^−hThy1^− (top portion of each bar in right graph). […]

Assay [2] has as its system human iPSC. As to the kind of experiment: gene disruption of hiPSC surface markers with truncated sgRNAs and Trex2 (flow cytometry). The class given is cell-based. Conditions: 1 μg Trex2 plasmid with Cas9 and sgRNA plasmids, five days. From the text: FIG. 12. Gene disruption activity of truncated sgRNAs with and without the Trex2 endonuclease. Full length (20 bp of target complementarity) and Truncated (18-19 bp) sgRNAs were designed to target the coding region of four genes expressed on the surface of hiPSC (top) and cloned into expression plasmids under the constitutive U6 promoter. The Cas9 nuclease and Trex2 endonuclease were also cloned into separate expression plasmids under the constitutive EF1α promoter. Human iPSC were nucleofected with 0.5 μg Cas9 plasmid, 1 μg sgRNA plasmid, and 1 μg of either pUC19 control or Trex2 plasmid. Five days later, cells were stained for expression of the surface markers (Thy 1, CD147, HLA-A2, or HLA-BC) and analyzed by flow cytometry gated on live single cells (open histograms). Shaded histograms indicate staining of an untargeted hiPSC control. The percent of cells that have lost expression of the surface markers is shown.
Pluripotency of iPSC cultures was verified by flow cytometry staining using anti-human Tra-1/60 PE (TRA-1-60, BD) and anti-human Oct3/4 eFluor 660 (EM92, eBioscience) with the fixation buffer sold under the trademark BD CYTOFIX™ and permeabilization buffer sold under the trademark PHOSFLOW™ Perm/Wash buffers. […] Viable cell counts were measured with the cell analyzer sold under the trademark MUSE® Count & Viability Assay kit (EMD Millipore). […]
On the technique in general: Flow cytometry measures light scatter and fluorescence of single cells or particles in a stream.

[3] abbreviates: 0.5 μg plasmid overexpressing the DNA repair gene, 50 μM zVAD and 10 μM SB203580 post transfection (FIG. 9E).

B1: Rad51: DNA repair gene overexpressed from plasmid (protein, UniProt Q06609 2-339, looked up)
DNA repair protein RAD51 …: AMQMQLEANADTSVEEESFGPQPISRLEQCGINANDVKKLEEAGFHTVEAVAYAPKKELINIKGISEAKADKILAEAAKLVPMGFTTATEFHQRRSEIIQITTGSKELDKLLQGGIETGSITEMFGEFRTGKTQICHTLAVTCQLPIDRGGGEGKAMYIDTEGTFRPERLLAVAERYGLSGSDVLDNVAYARAFNTDHQTQLLYQASAMMVESRYALLIVDSATALYRTDYSGRGELSARQMHLARFLRMLLRLADEFGVAVVITNQVVAQVDGAAMFAADPKKPIGGNIIAHASTTRLYLRKGRGETRICKIYDSPCLPEAEAMFAINADGVGDAKD
For the molecule B1, the “mThy1 gene targeting efficiency” value in assay [1] (setting [3]) is recorded as “reduced gene targeting efficiency”.

B2: Trex2: endonuclease Trex2, expressed from plasmid (protein, UniProt Q9BQ50 1-236, looked up)
Three prime repair …: MSEAPRAETFVFLDLEATGLPSVEPEIAELSLFAVHRSSLENPEHDESGALVLPRVLDKLTLCMCPERPFTAKASEITGLSSEGLARCRKAGFDGAVVRTLQAFLSRQAGPICLVAHNGFDYDFPLLCAELRRLGARLPRDTVCLDTLPALRGLDRAHSHGTRARGRQGYSLGSLFHRYFRAEPSAAHSAEGDVHTLLLIFLHRAAELLAWADEQARGWAHIEPMYLPPDDPSLEA
For the molecule B2, the “mThy1 gene targeting efficiency” value in assay [1] (Trex2 plasmid added (FIG. 9F)) is listed as “reduced mThy1 gene targeting efficiency”. Besides, in assay [2], the gene disruption frequencies result was “increased gene disruption frequencies”.

B3: CtIP: principal HR mediator, overexpressed from plasmid (protein, UniProt Q99708 1-897, looked up)
DNA endonuclease RBBP8: MNISGSSCGSPNSADTSSDFKDLWTKLKECHDREVQGLQVKVTKLKQERILDAQRLEEFFTKNQQLREQQKVLHETIKVLEDRLRAGLCDRCAVTEEHMRKKQQEFENIRQQNLKLITELMNERNTLQEENKKLSEQLQQKIENDQQHQAAELECEEDVIPDSPITAFSFSGVNRLRRKENPHVRYIEQTHTKLEHSVCANEMRKVSKSSTHPQHNPNENEILVADTYDQSQSPMAKAHGTSSYTPDKSSFNLATVVAETLGLGVQEESETQGPMSPLGDELYHCLEGNHKKQPFEESTRNTEDSLRFSDSTSKTPPQEELPTRVSSPVFGATSSIKSGLDLNTSLSPSLLQPGKKKHLKTLPFSNTCISRLEKTRSKSEDSALFTHHSLGSEVNKIIIQSSNKQILINKNISESLGEQNRTEYGKDSNTDKHLEPLKSLGGRTSKRKKTEEESEHEVSCPQASFDKENAFPFPMDNQFSMNGDCVMDKPLDLSDRFSAIQRQEKSQGSETSKNKFRQVTLYEALKTIPKGFSSSRKASDGNCTLPKDSPGEPCSQECIILQPLNKCSPDNKPSLQIKEENAVFKIPLRPRESLETENVLDDIKSAGSHEPIKIQTRSDHGGCELASVLQLNPCRTGKIKSLQNNQDVSFENIQWSIDPGADLSQYKMDVTVIDTKDGSQSKLGGETVDMDCTLVSETVLLKMKKQEQKGEKSSNEERKMNDSLEDMFDRTTHEEYESCLADSFSQAADEEEELSTATKKLHTHGDKQDKVKQKAFVEPYFKGDERETSLQNFPHIEVVRKKEERRKLLGHTCKECEIYYADMPAEEREKKLASCSRHRFRYIPPNTPENFWEVGFPSTQTCMERGYIKEDLDPCPRPKRRQPYNAIFSPKGKEQKT
On to B3, for which the “mThy1 gene targeting efficiency” value in assay [1] (setting [3]) is “did not improve mThy1 gene targeting efficiency”.

B4: MRE11a: principal HR mediator, overexpressed from plasmid (protein, UniProt P49959 2-708, looked up)
Double-strand break repair …: STADALDDENTFKILVATDIHLGFMEKDAVRGNDTFVTLDEILRLAQENEVDFILLGGDLFHENKPSRKTLHTCLELLRKYCMGDRPVQFEILSDQSVNFGFSKFPWVNYQDGNLNISIPVFSIHGNHDDPTGADALCALDILSCAGFVNHFGRSMSVEKIDISPVLLQKGSTKIALYGLGSIPDERLYRMFVNKKVTMLRPKEDENSWFNLFVIHQNRSKHGSTNFIPEQFLDDFIDLVIWGHEHECKIAPTKNEQQLFYISQPGSSVVTSLSPGEAVKKHVGLLRIKGRKMNMHKIPLHTVRQFFMEDIVLANHPDIFNPDNPKVTQAIQSFCLEKIEEMLENAERERLGNSHQPEKPLVRLRVDYSGGFEPFSVLRFSQKFVDRVANPKDIIHFFRHREQKEKTGEEINFGKLITKPSEGTTLRVEDLVKQYFQTAEKNVQLSLLTERGMGEAVQEFVDKEEKDAIEELVKYQLEKTQRFLKERHIDALEDKIDEEVRRFRETRQKNTNEEDDEVREAMTRARALRSQSEESASAFSADDLMSIDLAEQMANDSDDSISAATNKGRGRGRGRRGGRGQNSASRGGSQRGRADTGLETSTRSRNSKTAVSASRNMSIIDAFKSTRQQPSRNVTTKNYSEVIEVDESDVEEDIFPTTSKTDQRWSSTSSSKIMSQSQVSKGVDFESSEDDDDDPFMNTSSLRRNRR
In the case of B4, the “mThy1 gene targeting efficiency” value in assay [1] (setting [3]) was “did not improve mThy1 gene targeting efficiency”.
